The values below come from the nanobody polyreactivity screen of Harvey et al. (2022).

This data set is described as follows: yeast display, Sf9 membrane polyspecificity reagent, FACS + sequencing; frameworks hold sequencing errors. The gist of the method: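 Nanobodies from a synthetic yeast display library (Saccharomyces cerevisiae BJ5465), induced 36–48 hours with galactose, were stained 1 hour at 4 °C with 10% biotinylated, detergent-solubilized Sf9 membrane reagent, enriched on streptavidin microbeads, then FACS-sorted. Anti-HA (expression) and streptavidin (reagent binding) fluorescence set low and high (top ~1%) gates. Polyreactivity labels come from the gate of origin. Genes were colony-PCR amplified, MiSeq 2 × 250 sequenced and filtered by CDR length.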
As to “QVQLVESGGGLVQAGCSLRLSCAASGRTFYYYAMGWYRQAPGKERELVAAISKSGGSTYYADSVKGRFTISRDNAKNTVYLQMNSLKPEDTAVYYCAALTTHAPHSYNYWGQGTQVTVSS”, the “polyreactivity (PSR sort gate)” value is listed as “low polyreactivity”.

As to “QVQLVESGGGLVQAGGSLRLSCAASGSTLYDYTMGWYRQAPGKERELVAAIRVSGARTFYADSVKGRFTISRDNAKNTVYLQMNSLKPEDTAVYYCAAEFGSFVSPYNYYYWGQGTQVTVSS”, the “polyreactivity (PSR sort gate)” value was “low polyreactivity”. “QVQLVDSGGGLVQAGGSLRLSCAASGSIFKRNAMGWYRQAPGKERELVATISSRGGSTYYADSVKGRFTISRDNAKNTVYLQMNSLKPEDTAVYYCSARGYQITGNYYTPTSKYNYWGQGTQVTVSS”: the “polyreactivity (PSR sort gate)” value is listed as “high polyreactivity”. “QVQLVESGGGLVQAGGSLRLSCAASGFTFVYYTMGWYRQAPGKERELVAAITSGGRTYYADSVKGRFTISRDNAKNTVYLQMNSLKPEDTAVYYCAAPDRYRGYIGYGYWGQGTQVTVSS”: the “polyreactivity (PSR sort gate)” value is “high polyreactivity”. Regarding “QVQLVESGGGLVQAGGSLRLSCAASGRTFVPYVMGWYRQAPGKERELVATINWSGGSTYYADSVKGRFTISRDNAKNTVYLQMNSLKPEDTAVYYCAADYYWTYSYYYERFDYWGLGTQVTVSS”, the “polyreactivity (PSR sort gate)” value is given as “low polyreactivity”. As for “QVQLVESGGGLVQAGASLRLSCAASGSTFGYYAMGWNRQAPGKERELVAAISTRGGSTYYADSVKGRFTISRDNAKTTVYLQMNSLKPEDIAVYYCAVLGTPYGLNDYCGQGTQVTVSS”, the “polyreactivity (PSR sort gate)” value is “high polyreactivity”. On to “QVQLVESGGGLVQAGGSLRLSCASSGRIFGPNAMGWYRQAPGKERELVAAITSGGRTKYADSVKGRFTISRDNAKNTVYLQMNSLKPEDTAVYYCATTAQYYWGQGTQVTVSS”, for which the “polyreactivity (PSR sort gate)” value is “high polyreactivity”.

As to “QVQLVESGGGIVQAGGSLRLSCAASGRIFDGYAMGWYRQAPGKESQLVAAISATGGSTYYADSVKGRFTISRDNAKNTVYLQMNSLKPEDTAVYYCATDYVRGLYRYKLSRYEYWGQGTQETVSS”, the “polyreactivity (PSR sort gate)” value is “low polyreactivity”. As for “QVQLVESGVGLVQAGRSLRLSCAASGRTFVQYAMGWYRQAPGKERELVARISRRGGSTYYADSVKGRFTISRDKAKNSVYLQMNSLKPEDTAVYYFAADAYPYWYDYWGQGTQVTVSS”, the “polyreactivity (PSR sort gate)” value was “high polyreactivity”. “QVQLVESGGGLVQAGGSLRLSCAASGRTFLYYAMGWYRQAPGKERELVAAISSGGRTNYADSVNGRFTISRDNAKNTVYLQMNSRKPEDTAVYYCAVRRGAFSTYPGYNYWGQGTQVTVSS”: the “polyreactivity (PSR sort gate)” value is “high polyreactivity”.

Regarding “QFQLEESGGGLVQAGGSLRLSCAASGSTFGDYAMGWYRQAPGKERVLVAAINFSDGSTYYADSVKGRFTISRDNAKNTVYLQMNSLKPEDSAVYYCAKQGYLVWSGWRWYDYWGQGTQGTVSS”, the “polyreactivity (PSR sort gate)” value was “low polyreactivity”. For the sequence “HVQLQESGGGLMQAGGSQRLSCAASGSISYNSDMGWYRQAPGKEREFVAGIGYGTTTNYADSVKGRFTTSRDNAKNTVYLQMISMKPEDTEVYYCAAYQGNGYEFYYWGQGTQVTVRS”, the “polyreactivity (PSR sort gate)” value is given as “low polyreactivity”. Turning to “QVQLVESGGGLLQAGGSLRLSCAASGLTFVGYDMGWYRQAPGKERELVAAISTGGGSTYYADSVKGRFTISRDNAMNTVYLKMNSLKPEDTAVYYCNKLRLHGDRYDYWGQGTQVTVSS”, the “polyreactivity (PSR sort gate)” value is “high polyreactivity”.

In the case of “QFQLVESVVGLVQAGGSLRLSCAASGTTFGVNDMRWYRQAPGKEREFVADITTSGGSTYYADSVKGRFTISRDNAKNTVYLQMNSLKPEDTAVYYCAADLWPFEHDDYWGQGTQVTVSS”, the “polyreactivity (PSR sort gate)” value is “low polyreactivity”. With “QVQLVESGGGLVQAGGSLRISCAASGLTIVPNAMGWYRQAPGKERELVAAISNNGGRTYYADSVKGRFTISRDNAKNTVYLQMNSLKPEDTAVYYCAKYLSPGERHSYDYWGQGTQVTVSS” the entry was “high polyreactivity”. On to “QVQLVESGGGLVQAGGSLRLSCAASGFTFDIYAMGWYRQAPGKEREMVADITSGGSTDYADSVKGRFTISRDNAKNTVYLQMNSLKPEDTAVYYCNGAVFYDPEWQYDYWGQGSQVTVSS”, for which the “polyreactivity (PSR sort gate)” value was “low polyreactivity”. In the case of “QDQLVESGGGLVQAGGSLRLSCAASGFTFRAYTMGWYRQAPGKERELVAAITYSGGRTYYADSVKGRFTISRDNAKKTVNLQMNSLNPEDTAVYYCAKRGWALSEYDYWGQGTQVTVSS”, the “polyreactivity (PSR sort gate)” value was “high polyreactivity”. Take “QVQLVESGGGLVQAGGSLRLSCAASGLTFPPNAMGWYRQATGKEREFVAVISSGGGSTYYADSVKVRFTISRDNAKNTVYLQMNSLNPEDTAVYYCATEYQDGETEYYYWGQGTQVTVSS”: the “polyreactivity (PSR sort gate)” value is “low polyreactivity”. For the sequence “QVQLVESGGGLVQAGGSLRLSCAASGGTFYGNAMGWYRQAPGKERELVAGITDDSSTYYADSVKGRFTISRDNAKNTVYLQMNSLKPEDTAVYYCAKDLSWYYLPEVYYWGQGTQVTVSS”, the “polyreactivity (PSR sort gate)” value was “low polyreactivity”.

“QVQLVESAGGLVHAGGSLRLSCAASGFNFGFNAMGWDRQAPGKERELVAVISARGGRTYYADSVKGRFTISRDNAKNSVYLQMNSLKPEDSAVYYSAADDFFRYFFTHWVGDDYWGQGTQVSVSS”: the “polyreactivity (PSR sort gate)” value is listed as “low polyreactivity”. Turning to “QVQLVESGGGLVQAVGGLRLSCAASGSTFKRNTMGSYRQAPGKEMELVAAISRSGGSTYYADSVKGRFTISRDNAKNTVYLQMNSLKPEDTAVYYCNAYVSSYVGSRSYGLSPYDYWGQGTQVTVSS”, the “polyreactivity (PSR sort gate)” value was “high polyreactivity”. “QVQLVESGGGLVQAGGSLRLSCAASGRTIWYYAMGWYRQAPGKERELVAAITYRGGSTYYADSVKGRFTISRDNVKNTVYLQMNSLKPEDTAVYFCAKENYYGGGFDYWGQGTQVTVSS”: the “polyreactivity (PSR sort gate)” value is listed as “high polyreactivity”.

On to “QVQLVESGGGLVQAGGSHRLSCAAYGRTFGVYAMGWYRQAPGKERELVAAISSRGGSTYYADSVKGRFTISRDNAKNSVYLQMNSLKPEDTAFYYCAAPWYQGLDYWGQGTQVTVSS”, for which the “polyreactivity (PSR sort gate)” value was “high polyreactivity”. Take “QVQLVESGGGLVQAGGSLRLSCAASGRTFRYYAMGWYRQAPGKERELVAAITGSGGSTYYADSVKGRFTISRDTAKNTVYLQMNSLKPEDTAVYYCATRWALRWRGGYWGQGTQVTVSS”: the “polyreactivity (PSR sort gate)” value is given as “high polyreactivity”. Consider “QVQLVESGGALVQAGGSLRLSCAASGSTFNRYAMGWYRQAPGKERELVAAISASGGSTYYADSVKGRFTISRDNAKNTVYLQMNSLKPEDTAVYYCATLHYVGQEHDYWGQGTQVTVSS”, for which the “polyreactivity (PSR sort gate)” value is “low polyreactivity”. Regarding “QVELVESGGGLVQAGGSLRLSCAASGSTFDYNAMGWYRQAPGKERELVAAISRTANANYADSVKGRFTISRDNAKNTVYLQMNSLKPEDTSVYYCAADFRASKVHVRFCYWGQGTQVTVSS”, the “polyreactivity (PSR sort gate)” value is “low polyreactivity”. On to “QVQLVESGGGLVQAGGSLRLSCAASGHIFFYYTMGWYSPAPGKERELVAGITIGGSTNYADSVKGRFTISRDNAKNTVYLQMNSLKPEDTAVYYCNVVKYVYIYSYWEYYYWGQGTQVNVSS”, for which the “polyreactivity (PSR sort gate)” value is recorded as “low polyreactivity”. Take “QVQLVESGGGLFQAGGSLRLSCAASGRTFHGYAMGWYRQAPGKERELVARINWSDGRTYYADSVKGRFTISRDNAKNTVYLQMNSLKPEDTAVYYCAADKTVSYAPAWYYYWGQGTQVTVSS”: the “polyreactivity (PSR sort gate)” value was “low polyreactivity”. In the case of “QVQLVESGGGLVQAGGRLRLSCAASGSIFFDNTMGWYRQAPWKERELVASITYSGSTYADSVKGRFTISRDNAKNTVYLQMNSLKPEDTAVYYCNTESYWKVERFDYWGQGTHVTVSS”, the “polyreactivity (PSR sort gate)” value is given as “low polyreactivity”. As to “QVQLVESGGCLVQAGGSLRLSCAASGRTFKQYAIGWSRQAPGKERELVAAITSGGSTYYADSVKGRFTISRDNAKNTVSLHMNSLKPEDNAVYYCNKESYFDTYRRYDSWGQCTQVTVSS”, the “polyreactivity (PSR sort gate)” value was “low polyreactivity”.

For the sequence “HVQLVESGGGLVQAGGSLRLSCAASGRIFGRNAMGWYRQAPGKERELVAAISSGGSTYYADSVKGRLTISRDNAKNTVYLQMNSLKPEDTAVYYFAVRGSYYNGGRAFESWGQGTQVTVSS”, the “polyreactivity (PSR sort gate)” value is recorded as “high polyreactivity”. “QVQLEESGGGLVQAGGSLRLSCAASGLTLYKNGMGWYRQSPGKERELVAVISRSGGRTYYADSVKGRFTISRDNAKNTVYLQMNSLKPDDTAVYYCAARQYGPRYTYYYWGQGTQVTVSS”: the “polyreactivity (PSR sort gate)” value was “high polyreactivity”. With “QVQLVESGGGLVQAGGSLRLSCAASGRTFYFYTMGWYRQAPGIERELVATIRWSAGSTYSADSVKGRFTISRDNAKNTVYLQMTSLKPEDTAVYYCNADPYVYSSWQYGYWGQGTQVTVSS” the entry was “high polyreactivity”; with “QVQLVESGGGLVQAGGSLRLSCAASGRIFGRYAMGGSRQAPGKERELVAAITSSGGNTYYADSVKGRFTISRDNAKNTVYLQMNSLKPEDTAVYYCNALSARSRLQSDYWGQGTQVTVSS”, “high polyreactivity”.

For “QVQLVESGGGLVQAGGSLRLSCAASGRIFSWYTMGWYRQAPGKERELVASITTGGRTYYADSLKGRFTNSRDNAKNTVYLQMNSLKPEDTAVYSCIVLSTLFGYYRWGDYWGQGTQVTVSS”, the “polyreactivity (PSR sort gate)” value is on record as “high polyreactivity”. Consider “QVQLVESGGGLVQAGGSLRLSCAASGRTFAINVMGWYRQAPGKEMELVASIRGRGGRTNYADSVKGRFTISRDNAKNSVYLQMNSLKPEDTAVYYCAAAYTGGGQYEYEYWGQGTQVTVSS”, for which the “polyreactivity (PSR sort gate)” value is “high polyreactivity”.

“QVHLVESGGGLVQAGGSLRLSSAATGSIIYWYDMGWYRQAPGKERELVAAITNDGDSTYYADSVKGRFTISRDNAKNTVYLQMNSLKPEDTAVYYCAADVLFYYEYGSWGQGTQVTVSS”: the “polyreactivity (PSR sort gate)” value is listed as “low polyreactivity”. As for “QDQLVESGGGLVQAGGSLRLSCAASGRTFAAYAMGWYRQAPGKERELVATIRRGGTTDYADSVKGRFTISRDNAKNTVYLQMNSLKPEDTAVYYCNARSRTYRTRRYDYWGQGTQVTVSS”, the “polyreactivity (PSR sort gate)” value is reported as “high polyreactivity”. As for “QVQLVESGGGLVQAGGSLRLSCAASGSTFSSYGMGWYRQAPGKERELVAAISKRGGSTYYADSVKGRFTISRDNAKNTVYLQMNSLKPEDTAVYYCAARYRLYYYFRFDWGQGTHVTVSS”, the “polyreactivity (PSR sort gate)” value is on record as “high polyreactivity”. With “QVQLVESGGGLVQAGGSLRLSCAASGFTFFRIYAMGWYRQAPGKERELVAAISRSGSTYADSVKGRFTISRDNAKNTVYLQMNSLKPEDTAVYYCNTTLYADSVWYDYWGQGTQVTVSS” the entry was “high polyreactivity”; with “QVQLVESGGGLVQAGGSLRLSCAASGRTFYSYAMGWYRPAPGKERELVAAINSGGDTYYADSVKGRFTISRDNAKNTVYLQMNSLKPEDTAVYYCAADYYWEMDSWGQGTQVTVSS”, “low polyreactivity”.
